# Data taken from patent publication US20230110188A1 (ARGENX IIP, published 2023).
# Changes are numbered by the printed parent chain.
# B1: 3D10a (antibody, human IgG1, kappa, L234A L235A, V domains shown)
# VH: EVQLVESGGGLVKPGGSLRLSCAASGFTFSASTMAWVRQAPGKGLEWVSSVSGDSHHIYYADSLKGRFTISRDNAKNSLYLQMNSLRAEDTAVYYCARERLLRLGVGFDSWGQGTLVTVSS
# VL: DIQMTQSPSSLSASVGDRVTITCRASQRISGFVNWYQQKPGKAPKLLIYAASTLQSGVPSRFSGSGSGTDFTLTISSLQPEDFATYYCQQSYSPLYTFGQGTKLEIKR
# B2: 4D3 (antibody, human IgG1, kappa, L234A L235A, V domains shown)
# VH: B1 VH with A31S, S32Y, A35T, V51I, G53S, D54G, S55G, H57Y, A61T, S110F
# VL: B1 VL with R28S, F32Y, V33L, P94A
# B3: 3F6c (antibody, human IgG1, kappa, L234A L235A, V domains shown)
# VH: EVQLVESGGGLVKPGGSLRLSCAASGFTFSSYTMDWVRQAPGKGLEWVSSIGSNGDYIYYADSVRGRFTISRDNAKNSLYLQMNSLRAEDTAVYYCARGQLAVAGTHFDYWGQGTLVTVSS
# VL: B1 VL with R28K, I29V, S30N, G31K, F32Y, Y96S
# B4: 3D9b (antibody, human IgG1, kappa, L234A L235A, V domains shown)
# VH: EVQLVESGGGLVKPGGSLRLSCAASGFTFSTYTMHWVRQAPGKGLEWVSSISSRSAYKYYADSVKGRFTISRDNAKNSLYLQMNSLRAEDTAVYYCARDFFQLGPPRFDSWGQGTLVTVSS
# VL: B1 VL with G31S, V33L, A50G, T53N, L95S
# Target: T1, Human MuSK (R&D Systems, cat. 10189-MK, histidine tag) (human, UniProt O15146 24-495)
# T1 construct: Bought protein; also called human monomeric MuSK-6xhis; not shown: histidine tag (6xhis)
# T1 sequence: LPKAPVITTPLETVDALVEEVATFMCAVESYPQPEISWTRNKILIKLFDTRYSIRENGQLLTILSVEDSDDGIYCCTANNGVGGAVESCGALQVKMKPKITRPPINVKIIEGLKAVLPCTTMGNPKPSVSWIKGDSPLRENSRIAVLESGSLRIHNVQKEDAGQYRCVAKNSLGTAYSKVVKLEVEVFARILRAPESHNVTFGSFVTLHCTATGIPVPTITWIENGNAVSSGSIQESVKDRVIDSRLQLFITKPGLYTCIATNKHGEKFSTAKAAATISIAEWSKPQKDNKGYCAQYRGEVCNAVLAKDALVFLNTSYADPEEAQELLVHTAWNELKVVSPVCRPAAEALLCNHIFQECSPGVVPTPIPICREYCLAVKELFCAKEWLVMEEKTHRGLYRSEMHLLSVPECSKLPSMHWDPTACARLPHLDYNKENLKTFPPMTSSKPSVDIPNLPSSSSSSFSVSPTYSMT
# Experiment: SPR (Biacore), antibody captured on anti-hFc chip; 1.25 nM; dissociation pH 5.5
# Description: (§1) In order to study pH dependent binding of our antibodies to MuSK, the Biacore was used with the same setup as described in the paragraph entitled “Binding affinity for mouse, human and rhesus monkey recombinant MuSK in Biacore”. 6. […] For the other antibodies there is no real difference observed between pH 7.4 and 5.5.
row,Binder,koff
1,B1,7e-05 s⁻¹
2,B2,0.00016 s⁻¹
3,B3,0.00018 s⁻¹
4,B4,3e-05 s⁻¹

# Target: T1, Human MuSK (R&D Systems, cat. 10189-MK, …)
# Experiment: SPR (Biacore), antibody captured on anti-hFc chip, MuSK injected 0.3125-10 nM
# Method: (§2) The affinity of 3D10a, 4D3, 3F6c and 3D9b for human, rhesus monkey and mouse MuSK was tested in Biacore using the setup shown in FIG. 3. […] The affinities are very high keeping in mind that MuSK was added here in solution, allowing only for monovalent binding (affinity versus avidity).
row,Binder,Kd
1,B1,0.16 nM
2,B2,0.26 nM
3,B3,0.05 nM
4,B4,0.17 nM

# Target: T2, Rhesus monkey MuSK (recombinant, streptavidine and Flag tag) (rhesus monkey, UniProt O15146 24-495 (human entry))
# T2 construct: also called Rhesus MuSK; not shown: streptavidine and Flag tag
# T2 chain: T1 sequence with I144T, I278V, V342L, I355V, V389A, L437P
# Experiment: as above
# Method: as §2
row,Binder,Kd
1,B1,0.21 nM
2,B2,0.31 nM
3,B3,0.13 nM
4,B4,0.28 nM

# Target: T1, Human MuSK (R&D Systems, cat. 10189-MK, …)
# Experiment: SPR (Biacore), pH 7.4 (summary table, repeats the average of Table 16); pH 7.4
# Description: as §1
row,Binder,koff
1,B1,0.00016 s⁻¹
